Assay [1] deals with TrkB receptor, endogenous in differentiated SH-SY5Y cells (human (endogenous in SH-SY5Y)) (UniProt Q16620).
For assay [2] the target is unchanged. As to the kind of experiment: immunostaining of cells or tissue; non-permeabilizing immunofluorescence of membrane-bound BDNF on differentiated SH-SY5Y cells; 1 h treatment with BDNF 150 ng/mL, d-bdnf 10 μM, or both.
In a further assay the test system is TrkB. The conditions noted are these: synaptic cleft; cited from earlier work. From the text: BDNF is the predominant NT in the adult brain and is widely distributed in the cortical areas, visual cortex, and hippocampus.[3] Activation of TrkB by BDNF initiates downstream signaling cascades mediated by Ras/ERK, PI3K/Akt, and PLC-γ.[4] After its activation, the BDNF–TrkB complex undergoes endocytosis, recycling, or degradation and crucially takes the axonal transport route to sustain neuron survival and differentiation.[5] Furthermore, BDNF/TrkB signaling regulates dendritic branching, the density of spines, and spine morphological specializations, acting both as the mediator and modulat ... || The modulation of the BDNF–TrkB signaling axis has been recently postulated as a drug target for the treatment of neurological diseases, including nerve injury, neurodegenerative diseases, and neuropsychiatric disorders.[15],[16] Unfortunately, the therapeutic use of BDNF, as that of other NTs, is challenging due to the uncontrolled side effects as well as their low bioavailability.[17] To overcome such limitations, the use of peptide fragments that can mimic specific domains of the NTs has been explored in the last few years.[18] The most investigated BDNF structural elements have been so far ...

Chain of UniProt Q16620 (Q16620 32-822): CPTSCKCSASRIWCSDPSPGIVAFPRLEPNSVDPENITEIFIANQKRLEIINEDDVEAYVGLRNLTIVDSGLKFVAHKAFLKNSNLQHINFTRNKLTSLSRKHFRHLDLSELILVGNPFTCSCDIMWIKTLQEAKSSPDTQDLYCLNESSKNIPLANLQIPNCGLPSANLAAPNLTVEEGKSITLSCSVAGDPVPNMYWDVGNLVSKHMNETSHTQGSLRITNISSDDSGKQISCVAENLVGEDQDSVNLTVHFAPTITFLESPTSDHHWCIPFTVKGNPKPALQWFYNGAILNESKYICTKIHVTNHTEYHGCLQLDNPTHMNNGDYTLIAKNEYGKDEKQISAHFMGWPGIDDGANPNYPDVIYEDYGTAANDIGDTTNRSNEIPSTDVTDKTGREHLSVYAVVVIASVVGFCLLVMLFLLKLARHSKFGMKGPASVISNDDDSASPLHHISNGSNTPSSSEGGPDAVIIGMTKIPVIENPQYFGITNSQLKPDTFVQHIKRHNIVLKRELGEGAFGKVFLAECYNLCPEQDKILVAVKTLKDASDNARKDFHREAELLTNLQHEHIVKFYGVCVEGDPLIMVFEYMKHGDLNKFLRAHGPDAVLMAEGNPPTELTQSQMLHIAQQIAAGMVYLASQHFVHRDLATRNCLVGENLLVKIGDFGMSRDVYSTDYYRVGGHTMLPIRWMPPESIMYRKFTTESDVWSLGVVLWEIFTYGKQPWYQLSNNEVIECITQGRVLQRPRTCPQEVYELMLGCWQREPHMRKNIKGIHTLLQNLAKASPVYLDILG

In the case of “recombinant human mature BDNF (hBDNF) (ligand)”, in assay [1], the EC50 of ERK phosphorylation, dose-response in differentiated SH-SY5Y cells (referred to the monomer form) is 0.69 nM and the maximal effect (Emax) of ERK phosphorylation, dose-response in differentiated SH-SY5Y cells was determined as 237. The increase of the fluorescent signal of membrane-bound BDNF on the cells in assay [2] came out at 40%.
Consider `[Zn+2]` [zinc], for which the TrkB activation entry in the assay on TrkB is given as “prompt post-synaptic, BDNF-independent TrkB activation”.

Source of the values: PMC9732821, “Neurotrophic Activity and Its Modulation by Zinc Ion of a Dimeric Peptide Mimicking the Brain-Derived Neurotrophic Factor N-Terminal Region” (ACS Chemical Neuroscience, 2022).
